According to paper PMC10657408, “c-di-GMP inhibits the DNA binding activity of H-NS in Salmonella” (Nature Communications, 2023):
Residue numbers refer to the chain shown, from its start.

Legend:
H-NS = target: T1, H-NS (Salmonella enterica, UniProt A0A0H3NBY9); assay: ITC ([…] stoichiometry); also UV-crosslinking competition and EMSA inhibition of DNA binding
T1 construct: gene hns; full-length, tag-free

StpA [1] = target: T2, StpA (Salmonella enterica, UniProt P0A1S4, F98Y); assay: Kd measurement (ITC, Supplementary Fig. […]b); assay type: binding
T2 sequence (P0A1S4 1-133 F98Y): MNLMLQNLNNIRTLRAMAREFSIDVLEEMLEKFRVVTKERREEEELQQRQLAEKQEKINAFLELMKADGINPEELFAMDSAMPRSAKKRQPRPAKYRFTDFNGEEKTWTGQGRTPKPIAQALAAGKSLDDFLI

StpA [2] = target: StpA (Salmonella enterica, UniProt P0A1S4); assay: Kd measurement (ITC, Supplementary Fig. […]b); assay type: binding
[3] = target: T3, H-NS (Salmonella enterica serovar Typhimurium (LT2 reference genome; SL1344 also used)) (UniProt P0A1S2); assay: ITC; settings: ITC: 25 mM Tris-HCl, 150 mM NaCl, pH 7.5, 20 C, 100 uM DNA into 10 uM protein; EMSA: 20 mM Tris-HCl, 4 mM MgCl2, 100 mM NaCl, 1 mM DTT, 1% NP-40, 10% glycerol …
T3 sequence: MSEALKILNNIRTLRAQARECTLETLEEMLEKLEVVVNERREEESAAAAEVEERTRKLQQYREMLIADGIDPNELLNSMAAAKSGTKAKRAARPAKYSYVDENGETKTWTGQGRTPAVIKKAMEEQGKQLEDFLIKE

[4] = target: T4, H-NS K107A K107A (Salmonella enterica serovar Typhimurium (LT2 reference genome; SL1344 also used)) (UniProt P0A1S2); assay: ITC; settings: ITC: 25 mM Tris-HCl, 150 mM NaCl, pH 7.5, 20 C, 100 uM DNA into 10 uM protein; EMSA: 20 mM Tris-HCl, 4 mM MgCl2, 100 mM NaCl, 1 mM DTT, 1% NP-40, 10% glycerol …
T4 sequence: T3 sequence with K107A

[5] = target: T3, H-NS (Salmonella enterica serovar Typhimurium (LT2 reference genome; SL1344 also used)); assay: EMSA; settings: ITC: 25 mM Tris-HCl, 150 mM NaCl, pH 7.5, 20 C, 100 uM DNA into 10 uM protein; EMSA: 20 mM Tris-HCl, 4 mM MgCl2, 100 mM NaCl, 1 mM DTT, 1% NP-40, 10% glycerol …
[6] = target: T4, H-NS K107A K107A (Salmonella enterica serovar Typhimurium (LT2 reference genome; SL1344 also used)); assay: EMSA; settings: ITC: 25 mM Tris-HCl, 150 mM NaCl, pH 7.5, 20 C, 100 uM DNA into 10 uM protein; EMSA: 20 mM Tris-HCl, 4 mM MgCl2, 100 mM NaCl, 1 mM DTT, 1% NP-40, 10% glycerol …
[7] = target: T5, H-NS T115A T115A (Salmonella enterica serovar Typhimurium (LT2 reference genome; SL1344 also used)) (UniProt P0A1S2); assay: ITC; settings: ITC: 25 mM Tris-HCl, 150 mM NaCl, pH 7.5, 20 C, 100 uM DNA into 10 uM protein; EMSA: 20 mM Tris-HCl, 4 mM MgCl2, 100 mM NaCl, 1 mM DTT, 1% NP-40, 10% glycerol …
T5 sequence: T3 sequence with T115A

[8] = system: H-NS (Salmonella enterica serovar Typhimurium (LT2 reference genome; SL1344 also used)); assay: ITC; settings: ITC: 25 mM Tris-HCl, 150 mM NaCl, pH 7.5, 20 C, 100 uM DNA into 10 uM protein; EMSA: 20 mM Tris-HCl, 4 mM MgCl2, 100 mM NaCl, 1 mM DTT, 1% NP-40, 10% glycerol …
[9] = system: H-NS K107A (Salmonella enterica serovar Typhimurium (LT2 reference genome; SL1344 also used)); assay: ITC; settings: ITC: 25 mM Tris-HCl, 150 mM NaCl, pH 7.5, 20 C, 100 uM DNA into 10 uM protein; EMSA: 20 mM Tris-HCl, 4 mM MgCl2, 100 mM NaCl, 1 mM DTT, 1% NP-40, 10% glycerol …

| Molecule | Kd [3] [µM] | Kd [4] [µM] | binding [5] | binding [6] | Kd [8] [µM] | Kd [9] [µM] | other results |
| --- | --- | --- | --- | --- | --- | --- | --- |
| Nc1nc2c(ncn2[C@@H]2O[C@@H]3CO[P@](=O)(O)O[C@H]4[C@@H](O)[C@H](n5cnc6c(=O)[nH]c(N)nc65)O[C@@H]4CO[P@](=O)(O)O[C@H]3[C@H]2O)c(=O)[nH]1 [c-di-GMP] | – | – | – | – | – | – | Kd (H-NS): 0.27 ± 0.04 µM; Kd (StpA [1]): 0.64 ± 0.09 µM; Kd (StpA [2]): 73 ± 14 µM |
| ATGTTTCATGGATTTCCCTTGAATTACACACACCCGGTTTCGGCATCCTGTCGGCTCCGTTTGAATTATTATCGACATAGCATGTCAGAAAAGTTATCTCTGCATCCTGTAAAGATAGATATCGCAGATTAATTAGTTTTCTGTTTCTCCCCTGAGTATCAGACGCAGTAATTAATCTTTGCGAATATGACATTTCGTCACGGTAATAAATTAAACATTTCGCTAAATAAAAAATAGCCG (double strand) [PfimA] | 0.36 | 0.43 | binds | binds | – | – | – |
| CAAAACTCATGGTAGTGACTCCTTTAATACCGGATTAAAATAAATAGACTCACCGTCAGGAAACAGTGCCCCGCACTTTATAATGCAACCAGCCTGTTATATTTAAATATTTACCAGAAGAACAGGGTATATTGCTGACAAGAGCCATGAAAATAAAAACACAAAAATTAGCACATAACATAAATACTGAATTACATAAATAAGGAAATGAACATAACAATA (double strand) [PvgrG] | 0.46 | 0.38 | binds | binds | – | – | binding [7]: binds more weakly |
| PclpV | – | – | – | – | 0.31 | 0.32 | – |
| PfimA | – | – | – | – | 0.36 | 0.43 | – |
| PvgrG | – | – | – | – | 0.46 | 0.38 | – |
| PyaiU | – | – | – | – | 0.29 | – | – |
| TAATCGATGGTGTTATCATTAGGAAGATAAATTTCTTCATATATAACCCAGTCGATGACTACAATTACTTTTTAATAAGATGGCGATGTAAAAACATCGTAACAGTTTATTTAATAAATAATTTTTCAAATTGTAAGTTTTTATGTCAATGCTGAAAATGTAATTGTGAATTTATCGGAAAATCCGAATGATAGAATCGCCTGTGACAAGGTATATGTAGACAGCATCCTGATATTGTA (double strand) [PssrAB] | – | – | binds | – | – | – | – |
| TTCCATGTGTTATGCCTTGTGACATAAAAATTCATAAAAATAATGCATCAATGCATATAAATATATAAACAATTCTTTATTGATAGCCTCGAAAAAATATCGAAACAAAACAATGATACAGATCAGGGACTAATTAGCAACTAAGCCGTTAATATTAAATAATCAATGAACAGCAAGATAAAAA (double strand) [PclpV] | 0.31 | 0.32 | binds | binds | – | – | binding [7]: binds more weakly |
